Experimental data taken from publication PMC5262456 (Science Advances, 2016).
Positions count from the first letter of the chain named. Names may count otherwise.

T1: Spy M53C with MTSL spin label (UniProt P77754 24-161, M53C, MTSL spin label on cysteine 53)
T1 sequence (looked up): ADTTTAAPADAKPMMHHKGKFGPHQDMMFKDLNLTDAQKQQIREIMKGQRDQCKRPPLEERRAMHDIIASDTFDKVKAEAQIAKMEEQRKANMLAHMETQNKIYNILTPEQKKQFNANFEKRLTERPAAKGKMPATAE

T2: Spy M85C with MTSL spin label (UniProt P77754 24-161, M85C, MTSL spin label on cysteine 85)
T2 sequence (looked up): T1 sequence (looked up) with C53M, M85C

T3: Spy T99C with MTSL spin label (UniProt P77754 24-161, T99C, MTSL spin label on cysteine 99)
T3 sequence (looked up): T1 sequence (looked up) with C53M, T99C

T4: SurA (ATP-independent periplasmic chaperone) (UniProt P0ABZ6 21-428)
T4 sequence (looked up): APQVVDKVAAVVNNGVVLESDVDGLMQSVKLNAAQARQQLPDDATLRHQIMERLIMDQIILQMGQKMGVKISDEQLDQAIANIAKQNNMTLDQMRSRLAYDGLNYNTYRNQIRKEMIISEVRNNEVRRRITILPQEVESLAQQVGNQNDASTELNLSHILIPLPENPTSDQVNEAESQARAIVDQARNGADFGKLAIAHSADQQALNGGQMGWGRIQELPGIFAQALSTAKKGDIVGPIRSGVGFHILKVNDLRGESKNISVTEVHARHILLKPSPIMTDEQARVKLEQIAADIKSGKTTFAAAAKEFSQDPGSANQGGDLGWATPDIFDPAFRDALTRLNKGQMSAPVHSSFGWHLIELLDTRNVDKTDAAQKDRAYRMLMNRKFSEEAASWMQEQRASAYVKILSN

T5: Skp (ATP-independent periplasmic chaperone) (UniProt P0AEU7 21-161)
T5 sequence (looked up): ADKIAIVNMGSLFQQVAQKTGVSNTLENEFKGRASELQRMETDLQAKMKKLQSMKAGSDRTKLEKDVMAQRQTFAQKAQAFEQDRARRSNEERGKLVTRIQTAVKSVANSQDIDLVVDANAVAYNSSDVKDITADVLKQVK

B1: Spy (ATP-independent periplasmic chaperone), wild type (natural protein, UniProt P77754 24-161, looked up)
chain: T1 sequence (looked up) with C53M
B2: Im7U T30C with MTSL spin label (natural protein, UniProt Q03708 1-87, looked up)
chain: MELKNSISDYTEAEFVQAAKEIEKENVAACDDVLDVALEHFVKITEHPDGTDLIYYPSDNRDDSPEGIVKEIKEWRAANGKPGFKQG
modifications: MTSL spin label on cysteine 30
B3: Im7, wild type, full length (natural protein, UniProt Q03708 1-87, looked up)
chain: B2 chain with A18L, A19L, C30T, A37L
B4: Im7U T11C with MTSL spin label (natural protein, UniProt Q03708 1-87, looked up)
chain: B2 chain with T11C, C30T
modifications: MTSL spin label on cysteine 11
B5: Im7 L18A L19A L37A (Im7U) (natural protein, UniProt Q03708 1-87, looked up)
chain: B2 chain with C30T

Tests used:
AUC = target: the molecule itself; assay: AUC
[1] = target: B1; assay: intramolecular paramagnetic relaxation enhancement
[2] = target: T1, Spy M53C with MTSL spin label; assay: intermolecular paramagnetic relaxation enhancement
[3] = target: T2, Spy M85C with MTSL spin label; assay: intermolecular paramagnetic relaxation enhancement
[4] = target: T3, Spy T99C with MTSL spin label; assay: intermolecular paramagnetic relaxation enhancement
[5] = target: B1; assay: SPR
[6] = target: T4, SurA (ATP-independent periplasmic …)
[7] = target: T5, Skp (ATP-independent periplasmic …)
[8] = target: B1; assay: ITC
[9] = target: T4, SurA (ATP-independent periplasmic …); assay: NMR titration
[10] = target: T5, Skp (ATP-independent periplasmic …); assay: NMR titration

Binder: B1
stoichiometry N (AUC): 2

Binder: B2
binding result [1]: binds

Binder: B3
binding result [2]: binds
binding result [3]: binds
binding result [4]: binds
Kd [5]: 20.3 ± 3.2 µM
Kd [6]: 50 µM
Kd [7]: 66 µM

Binder: B4
binding result [1]: binds

Binder: B5
binding result [3]: binds
Kd [8]: 0.327 µM
dH [8]: 8.9 ± 0.5 kcal/mol
binding result [9]: binds
binding result [10]: binds
